± gives the standard deviation of the averaged measurements.
Legend:
Saccharomyces cerevisiae [1] = test: protein stability index of tFT-peptide fusion (C-terminal peptide) (PSI (0-1 scale)); higher = more stable (slower turnover); details: genetic background: wild type; temperature: 30 C
Saccharomyces cerevisiae [2] = test: as above
Method: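 MPS profiling in S. cerevisiae of the tFT-X12 degron library: putative degron peptides plus stable controls, 12 aa, fused to the C-terminus of a sfGFP-mCherry timer. Cells are FACS-sorted into 8 mCherry/sfGFP bins and deep-sequenced. PSI runs from 0 (unstable) to 1 (stable). Backgrounds are wild type, das1Δ and doa10Δ at 30 °C, and wild type, das1Δ, cdc34-1 and cdc53-1 at 37 °C; 2-3 technical replicates each.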
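Note: PSI is a weighted mean of sequencing reads over stability bins, variants kept only with over 10 reads, mCherry proximal and sfGFP distal, peptide attached via GGGS linker.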

| Sequence | protein stability index (Saccharomyces cerevisiae [1]) | other results |
| --- | --- | --- |
| WSRLAGMGRGGA | 0.764 ± 0.013 | – |
| WSRSGGGEKYGV | 0.69 ± 0.0094 | – |
| WSSGLHHLPPSP | 0.706 ± 0.091 | – |
| WSSPCTGGVGKC | 0.63 ± 0.0068 | – |
| WSSSPAFKPSRR | 0.655 ± 0.098 | – |
| WSVVRVGGCGAR | 0.699 ± 0.024 | – |
| WSWGGLHRELAA | 0.744 ± 0.0099 | – |
| WSWRGMVELVEE | 0.642 ± 0.069 | – |
| WTPGTPVFSKGI | 0.714 ± 0.035 | – |
| WVFYAVRWRTWN | – | protein stability index (Saccharomyces cerevisiae [2]; genetic background: cdc34-1, temperature: 37 C): 0.254 ± 0.015; protein stability index (Saccharomyces cerevisiae [2]; genetic background: cdc53-1, temperature: 37 C): 0.44 ± 0.0092; protein stability index (Saccharomyces cerevisiae [2]; genetic background: das1 deletion, temperature: 30 C): 0.311 ± 0.037; protein stability index (Saccharomyces cerevisiae [2]; genetic background: das1 deletion, temperature: 37 C): 0.54 ± 0.017; protein stability index (Saccharomyces cerevisiae [2]; genetic background: doa10 deletion, temperature: 30 C): 0.0632 ± 0.0063; protein stability index (Saccharomyces cerevisiae [2]; genetic background: wild type, temperature: 30 C): 0.066 ± 0.018; protein stability index (Saccharomyces cerevisiae [2]; genetic background: wild type, temperature: 37 C): 0.061 ± 0.0063 |
| WVGGGLVVFGWK | 0.6944 ± 0.0025 | – |
| WVGGVVMVPVLL | 0.542 ± 0.0094 | – |
| WVGLGRVWVKLG | 0.697 ± 0.044 | – |
| WVLGGVAPPAVL | 0.694 ± 0.048 | – |
| WVLPFLGAWLEL | 0.606 ± 0.063 | – |
| WVPCGYIERAPL | 0.582 ± 0.05 | – |
| WVSAMGIPRVVG | 0.574 ± 0.05 | – |
| WVSGLVSIGACL | 0.683 ± 0.0076 | – |
| WVTCALVVQSRF | 0.693 ± 0.0073 | – |
| WVVLGGRSGCGA | 0.667 ± 0.053 | – |
| WWEGSFRVGAVR | 0.638 ± 0.008 | – |
| WWGCRSVGVGLG | 0.675 ± 0.025 | – |
| WWGWGGVACLLL | 0.693 ± 0.059 | – |

| Sequence | protein stability index (Saccharomyces cerevisiae [1]) | other results |
| --- | --- | --- |
| WWVGVVGCGSGA | 0.676 ± 0.11 | – |
| WYRIPGASHGPP | 0.662 ± 0.034 | – |
| YADTCEGDNLTS | 0.661 ± 0.03 | – |
| YAKKIDTIIILT | 0.54 ± 0.009 | – |
| YANFFVVGELGP | 0.687 ± 0.02 | – |
| YAYLGSNLKQTA | 0.703 ± 0.03 | – |
| YCHVPVVGSWIP | 0.735 ± 0.067 | – |
| YCLERVPAEYDG | 0.67 ± 0.019 | – |
| YCVMEVAGLEWE | 0.69 ± 0.038 | – |
| YDFHWAYFHSLY | 0.7113 ± 0.0035 | – |
| YFCGARSVGPGD | 0.717 ± 0.035 | – |
| YFVAVLGRCIRG | 0.6519 ± 0.0011 | – |
| YGAGLSHLFRIS | 0.636 ± 0.041 | – |
| YGGGVWRGVALG | 0.6914 ± 0.0052 | – |
| YGLVSFVCFNGG | 0.679 ± 0.042 | – |
| YGTGNGRRTYFD | 0.735 ± 0.04 | – |
| YGVLEYLRDLVF | 0.689 ± 0.016 | – |
| YIGSVCLCVSPV | 0.5999 ± 0.0038 | – |
| YIHQRKGRKPNE | 0.622 ± 0.057 | – |
| YINTKKKKINKT | 0.655 ± 0.014 | – |
| YIQGAPGGLGYP | 0.713 ± 0.0077 | – |
| YKGQVKKNNPQC | 0.726 ± 0.033 | – |
| YKGRYDCRVGGR | 0.682 ± 0.0096 | – |

| Sequence | protein stability index (Saccharomyces cerevisiae [1]) | other results |
| --- | --- | --- |
| YKKVKADKKKRM | 0.687 ± 0.017 | – |
| YLCVLASLSSTF | 0.591 ± 0.022 | – |
| YLFVRTGYRCKW | 0.681 ± 0.033 | – |
| YLGFRADVVFGK | 0.712 ± 0.063 | – |
| YLGFRVACPMLA | 0.501 ± 0.036 | – |
| YLGWLYQKCGTV | 0.639 ± 0.056 | – |
| YLKVNDELERRR | 0.695 ± 0.05 | – |
| YLRACDPPAVHR | 0.67 ± 0.024 | – |
| YLRGRCSSLSLR | 0.698 ± 0.036 | – |
| YLSPPLLPSFPL | 0.728 ± 0.021 | – |
| YLSVLQLRCFPA | 0.659 ± 0.019 | – |
| YLTNIHQRVLLP | 0.659 ± 0.031 | – |
| YLVKSCCNKDNV | 0.659 ± 0.029 | – |
| YLVPPLQPHSPA | 0.7305 ± 0.0056 | – |
| YLVRENLFSRLV | 0.466 ± 0.07 | – |
| YMAGPAQGRDGS | 0.668 ± 0.013 | – |
| YNANEKTINKDK | 0.693 ± 0.063 | – |
| YNYADVCTNESP | 0.7 ± 0.022 | – |
| YPCPPLLISSPP | 0.709 ± 0.051 | – |
| YPPLSYSFCHRP | 0.637 ± 0.072 | – |
| YPSQLGPSVPLS | 0.703 ± 0.039 | – |
| YPTCPPPSARRV | 0.58 ± 0.025 | – |
| YQGERGAIGVIF | 0.605 ± 0.013 | – |

| Sequence | protein stability index (Saccharomyces cerevisiae [1]) | other results |
| --- | --- | --- |
| YRAHAYPYVPRS | 0.682 ± 0.027 | – |
| YRALRRAFENKI | 0.633 ± 0.028 | – |
| YRCVQKEIVQRY | 0.693 ± 0.056 | – |
| YRDSLLATNFFS | 0.694 ± 0.056 | – |
| YREIVKQTENKR | 0.673 ± 0.0083 | – |
| YRPLEQLLSLSH | 0.651 ± 0.08 | – |
| YSFFTLCLSLPA | 0.557 ± 0.025 | – |
| YSHPCLSCREAH | 0.749 ± 0.057 | – |
| YSIKSTVTYSVH | 0.574 ± 0.066 | – |
| YSLASRVVNFCA | 0.497 ± 0.012 | – |
| YSLLSAHLVPIA | 0.614 ± 0.027 | – |
| YSLVKITHGRKK | 0.684 ± 0.015 | – |
| YSSFRSVNWVFP | 0.6838 ± 0.0033 | – |
| YSSLLLPPLLLF | 0.621 ± 0.025 | – |
| YSTYGGGYFMAF | 0.668 ± 0.031 | – |
| YTLMEERTKKDN | 0.742 ± 0.068 | – |
| YTMGGSLSVSLD | 0.817 ± 0.16 | – |
| YTPLLAHRGCCC | 0.695 ± 0.029 | – |
| YVPTPSRPRRNR | 0.718 ± 0.066 | – |
| YYPLLLASQLPI | 0.735 ± 0.0041 | – |
| YYRLLACQRPSR | 0.679 ± 0.027 | – |

Source: the supplement of paper PMC10724198
